Assay results as given in patent US20240360234A1 (NKARTA, published 2024).

T1: CD70-hFc complex (extracellular domain of human CD70 fused with the Fc region of human IgG1) (human) (UniProt P32970)
T1 sequence (looked up): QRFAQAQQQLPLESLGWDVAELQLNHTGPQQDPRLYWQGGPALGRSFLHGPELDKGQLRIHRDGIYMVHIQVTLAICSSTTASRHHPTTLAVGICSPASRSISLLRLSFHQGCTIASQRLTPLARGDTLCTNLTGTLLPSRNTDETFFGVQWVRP

B1: NK71 anti-CD70 CAR (scFv, not shown: a dimerising Fc or GST; small tags and cut ends)
scFv: QVTLKESGPVLVKPTETLTLTCTVSGFSLSNARMGVTWIRQPPGKALEWLAHIFSNDEKSYSTSLKSRLTISKDTSKTQVVLTMTNMDPVDTATYYCARIRDYYDISSYYDYWGQGTLVSVSSGGGGSGGGGSGGGGSDIQMTQSPSAMSASVGDRVTITCRASQDISNYLAWFQQKPGKVPKRLIYAASSLQSGVPSRFSGSGSGTEFTLTISSLLPEDFATYYCLQLNSFPFTFGGGTKVEIN
B2: CD70-hFc complex (extracellular domain of human CD70 fused with the Fc region of human IgG1) (Fc fusion, UniProt P32970 39-193, looked up)
chain: T1 sequence (looked up)
notes: range 39-193; Soluble reagent added at 2 or 10 ug/ml and detected with an anti-human Fc-APC antibody; not shown: Fc region of human IgG1, at the N-terminus of the fusion

Key:
[1] = target: T1, CD70-hFc complex (extracellular domain of human CD70 fused with the Fc region of human IgG1) (human); test: flow cytometry, CD70-hFc at 2 ug/mL on NK71-transduced Jurkat cells (about 16% NK71 positive; the cells also carry endogenous CD27)
[2] = target: T1, CD70-hFc complex (extracellular domain of human CD70 fused with the Fc region of human IgG1) (human); test: flow cytometry, CD70-hFc at 10 ug/mL on NK71-transduced Jurkat cells (about 16% NK71 positive; the cells also carry endogenous CD27)
[3] = target: T2, CD27 (endogenous, on Jurkat cells) (UniProt P26842 20-260, limits assumed); test: flow cytometry, CD70-hFc at 2 or 10 ug/ml on native Jurkat cells, anti-human Fc-APC detection
T2 construct: whole, on cells; also called the ligand for CD70
T2 sequence (P26842 20-260 limits assumed): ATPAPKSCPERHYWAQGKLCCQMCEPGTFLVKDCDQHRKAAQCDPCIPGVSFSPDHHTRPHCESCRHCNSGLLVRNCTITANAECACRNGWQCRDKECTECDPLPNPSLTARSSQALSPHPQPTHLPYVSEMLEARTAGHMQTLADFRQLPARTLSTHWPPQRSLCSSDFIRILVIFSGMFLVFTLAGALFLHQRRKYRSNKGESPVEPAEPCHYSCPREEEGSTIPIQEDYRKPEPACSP
Protocol: FIGS. 27A-27F show data related to the ability of anti-CD70 CAR-expressing Jurkat cells to bind human bind CD70. […] Moving left to right are negative control, control for the antibody to human Fc, binding when 2 ug/ml of a CD70-hFc complex is incubated with the Jurkat cells and binding is detected with the human Fc-APC antibody, and binding when 10 ug/ml of a CD70-hFc complex is incubated with the Jurkat cells and binding is detected with the human Fc-APC antibody. […] Moving left to right is a control for the antibody to murine Fc, binding when 2 ug/ml of a CD70-murine Fc complex is incubated with the Jurkat cells and binding is detected with a murine Fc-APC antibody, and binding when 10 ug/ml of a CD70-murine Fc complex is incubated with the Jurkat cells and binding is detected with the murine Fc-APC antibody, and detection of Flag tag (present in the NK71/72 CAR constructs, but not native Jurkat cells). […] Moving left to right are negative control, control for the antibody to human Fc, binding when 2 ug/ml of a CD70-hFc complex is incubated with the Jurkat cells and binding is detected with the human Fc-APC antibody, and binding when 10 ug/ml of a CD70-hFc complex is incubated with the Jurkat cells and binding is detected with the human Fc-APC antibody. […]

Binder | percent of Jurkat cells binding CD70 [1] [%] | percent of Jurkat cells binding CD70 [2] [%] | binding result [3]
B1 | 50 | > 80 | 
B2 |  |  | binds
